Experimental data published in paper doi:10.1101/2025.08.31.673313 (bioRxiv, 2025).

Target: wild-type KRAS peptide on HLA-C*08:02, on peptide-pulsed cells (Homo sapiens, HLA-C*08:02)
Assay: flow cytometry on cells

B1: C8K10D5-1 Fab (Fab, V domains shown)
VH: EVQLVESGGGLVQPGRSLRLSCAASGFTFDQYAMHWVRQAPGKGLEWVSGISAYSLSIGYADSVKGRFTISRDNAKNSLYLQMNSLRAEDTAVYYCARGRSEGVYMDGMDIWGSGTLVTVSS
VL: SYVLTQPPSVSVAPGQTARITCGGNNIKYRDVHWYQQKPGQAPVLVVYQDTLRPQGIPERFSGSNSGNMATLTISRVEAGDEADYYCQVWDWDTDHWVFGGGTDLTVL
**Q.** Does B1 bind?
**A.** Result: no binding (tested: 50 nM Fab)
